Data: article PMC10897327

Legend:
Assay in all cases: native gel or EMSA; NativePAGE 3-12% Bis-Tris gel with Coomassie G-250, immunoblot for 52K; purified MBP-52K fusion proteins with or without TEV protease cleavage for 1 h at room temperature
[1] = target: MBP-52K fusion protein, S28/75A (MBP tag not removed) (human adenovirus type C5 (Ad5))
[2] = target: MBP-52K fusion protein, wild type (MBP tag not removed) (human adenovirus type C5 (Ad5))
[3] = target: MBP-52K fusion protein, S28/75D (MBP tag not removed) (human adenovirus type C5 (Ad5))
[4] = target: recombinant 52K S28/75D released from MBP-52K by TEV protease (human adenovirus type C5 (Ad5))
[5] = target: recombinant WT 52K released from MBP-52K by TEV protease (human adenovirus type C5 (Ad5))
[6] = target: recombinant 52K S28/75A released from MBP-52K by TEV protease (human adenovirus type C5 (Ad5))

Substance: MBP-52K fusion protein, S28/75A (MBP tag not removed) (natural protein)
- stoichiometry N [1]: 2

Substance: MBP-52K fusion protein, wild type (MBP tag not removed) (natural protein)
- stoichiometry N [2]: 2

Substance: MBP-52K fusion protein, S28/75D (MBP tag not removed) (natural protein)
- stoichiometry N [3]: 2

Substance: recombinant 52K S28/75D released from MBP-52K by TEV protease (natural protein)
- stoichiometry N [4]: 2

Substance: recombinant WT 52K released from MBP-52K by TEV protease (natural protein)
- stoichiometry N [5]: 2

Substance: recombinant 52K S28/75A released from MBP-52K by TEV protease (natural protein)
- stoichiometry N [6]: 2
